Laboratory results taken from publication PMC9992347 (Molecular cell, 2023).
Residue numbers refer to the chain shown, from its start. Names and notes keep the numbering of the source.

B1: SPOP^1-374 W22R (natural protein, human, UniProt O43791 1-374, looked up)
chain: MSRVPSPPPPAEMSSGPVAESRCYTQIKVVKFSYMWTINNFSFCREEMGEVIKSSTFSSGANDKLKWCLRVNPKGLDEESKDYLSLYLLLVSCPKSEVRAKFKFSILNAKGEETKAMESQRAYRFVQGKDWGFKKFIRRDFLLDEANGLLPDDKLTLFCEVSVVQDSVNISGQNTMNMVKVPECRLADELGGLWENSRFTDCCLCVAGQEFQAHKAILAARSPVFSAMFEHEMEESKKNRVEINDVEPEVFKEMMCFIYTGKAPNLDKMADDLLAAADKYALERLKVMCEDALCSNLSVENAAEILILADLHSADQLKTQAVDFINYHASDVLETSGWKSMVVSHPHLVAEAYRSLASAQCPFLGPPRKRLKQS
B2: SPOP^1-374 W131G (natural protein, human, UniProt O43791 1-374, looked up)
chain: B1 chain with R22W, W131G
B3: SPOP^1-374 E47K (natural protein, human, UniProt O43791 1-374, looked up)
chain: B1 chain with R22W, E47K

What was measured:
[1] = biological target: the molecule itself; experiment: cryo-EM structure
[2] = biological target: the molecule itself; experiment: small-angle X-ray scattering

| Protein | binding result [1] | binding result [2] |
| --- | --- | --- |
| B1 | binds | – |
| B2 | – | binds |
| B3 | binds | – |
